Assay results as given in patent US20220323583A1 (MacroGenics, published 2022).

Assays:
[1] = target: human CD123 on target cell lines (Kasumi-3, Molm13, THP-1, TF-1, RS4-11) (human, UniProt P26951 19-378); assay: cell-based or functional assay
Human CD123-His = target: T1, Human CD123-His (human, UniProt P26951 19-305, limits assumed); assay: kinetic binding measurement, method not stated
T1 construct: Only the label 'Human CD123-His' is printed; also called interleukin 3 receptor alpha; IL-3Ra; not shown: His tag
T1 sequence (looked up): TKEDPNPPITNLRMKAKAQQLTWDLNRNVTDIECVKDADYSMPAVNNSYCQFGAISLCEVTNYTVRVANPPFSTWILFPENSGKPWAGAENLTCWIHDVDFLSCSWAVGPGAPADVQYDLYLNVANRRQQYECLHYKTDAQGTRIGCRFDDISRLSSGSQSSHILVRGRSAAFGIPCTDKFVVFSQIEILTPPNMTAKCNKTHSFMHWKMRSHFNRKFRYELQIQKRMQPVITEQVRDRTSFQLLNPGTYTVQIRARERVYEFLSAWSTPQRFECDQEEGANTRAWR

Cynomolgus CD123-His = target: T2, Cynomolgus CD123-His (cynomolgus monkey); assay: kinetic binding measurement, method not stated
T2 construct: Only the label 'Cynomolgus CD123-His' is printed; also called cynomolgus monkey CD123

B1: DART-A, sequence-optimized CD123×CD3 bispecific diabody (bispecific antibody)
chain 1: QAVVTQEPSLTVSPGGTVTLTCRSSTGAVTTSNYANWVQQKPGQAPRGLIGGTNKRAPWTPARFSGSLLGGKAALTITGAQAEDEADYYCALWYSNLWVFGGGTKLTVLGGGGSGGGGEVQLVQSGAELKKPGASVKVSCKASGYTFTDYYMKWVRQAPGQGLEWIGDIIPSNGATFYNQKFKGRVTITVDKSTSTAYMELSSLRSEDTAVYYCARSHLLRASWFAYWGQGTLVTVSSGGCGGGEVAALEKEVAALEKEVAALEKEVAALEK
chain 2: DFVMTQSPDSLAVSLGERVTMSCKSSQSLLNSGNQKNYLTWYQQKPGQPPKLLIYWASTRESGVPDRFSGSGSGTDFTLTISSLQAEDVAVYYCQNDYSYPYTFGQGTKLEIKGGGSGGGGEVQLVESGGGLVQPGGSLRLSCAASGFTFSTYAMNWVRQAPGKGLEWVGRIRSKYNNYATYYADSVKDRFTISRDDSKNSLYLQMNSLKTEDTAVYYCVRHGNFGNSYVSWFAYWGQGTLVTVSSGGCGGGKVAALKEKVAALKEKVAALKEKVAALKE
notes: Two chains covalently bonded by a disulfide bond, no Fc; a second species lacks the C-terminal lysine; also called CD123×CD3 diabody; CD123 × CD3 Bi-Specific Diabodies
EC50 of redirected killing, E:T = 10:1, Kasumi-3 target cells [1]: 0.01 ng/mL | EC50 of redirected killing, E:T = 10:1, Molm13 target cells [1]: 0.18 ng/mL | EC50 of redirected killing, E:T = 10:1, RS4-11 target cells [1]: 0.5 ng/mL | EC50 of redirected killing, E:T = 10:1, TF-1 target cells [1]: 0.46 ng/mL | EC50 of redirected killing, E:T = 10:1, THP-1 target cells [1]: 0.24 ng/mL | Kd (Human CD123-His): 0.13 nM | koff (Human CD123-His): 0.00019 s⁻¹ | kon (Human CD123-His): 1.6e+06 M⁻¹ s⁻¹ | Kd (Cynomolgus CD123-His): 0.27 nM | koff (Cynomolgus CD123-His): 0.0004 s⁻¹ | kon (Cynomolgus CD123-His): 1.5e+06 M⁻¹ s⁻¹
